Experiments:
SKM9-2 [1] = assay: Deglycosylation analysis: western blotting using SKM9-2 of neuraminidase-treated cell lysates; format: binding; details: full-length HEG1, lysates of ACC-MESO4 (native) or HEG1-transfected HEK293T, 6% SDS-PAGE
Excerpt: Figure 8 SKM9-2 epitope produced from mesothelioma cells. (a) Chromatogram of SKMepmin3 separation using anion exchange column. SKMepmin3 produced from HEK293T (blue line) or ACC-MESO4 (pink line) was affinity-purified using SKM9-2-immobilized resins and separated by Mini Q 4.6/50 PE. A major peak of SKMepmin3 purified from HEK293T contained two disialyl T antigens (Fig. 6). (b) Western blotting for epitope-fused GPI-anchor protein (7.6231) treated with neuraminidases. Cell lysate of 7.6231-transfected ACC-MESO1 (top panel), ACC-MESO4 (middle panel), or HEK293T (lower panel) was treated with α2-3 Neuraminidase S or Neuraminidase A, resolved by 4–15% SDS-PAGE, and analyzed by western blotting using SKM9-2. (c) Western blotting for full-length HEG1 treated with neuraminidases. Cell lysates of ACC-MESO4 (upper panel) and HEG1-transfected HEK293T (lower panel) were treated with α2-3 Neuraminidase S or Neuraminidase A and analyzed by 6% SDS-PAGE and western blotting using SKM9-2. (d) Schematic of SKM9-2 epitope. Full-length blots are presented in Supplementary Fig. S10.
Monolayer cells were solubilized with 20 mM Tris buffer (pH 8.0) containing 1% SDS, 1 mM phenylmethylsulfonyl fluoride, 125 mU/mL Benzonase Nuclease (Merck Millipore Co., Tokyo, Japan) (25 µL/cm^2 culture surface area). The lysate (10 µL/lane) was resolved by SDS-PAGE under reducing conditions using 6% polyacrylamide gels or 4–15% precast gels (Bio-Rad Laboratories Inc., Hercules, CA, USA). Then it was transferred to a polyvinylidene difluoride membrane (Immobilon-P; Merck Millipore Co.) by semi-dry blotting in a buffer containing 25 mM Tris, 192 mM glycine, 0.1% SDS, and 20% methanol. The membrane was blocked with 5% non-fat milk in 20 mM Tris-buffered saline (pH 7.2) containing 0.1% Tween 20 and reacted with 1 µg/mL of mAb SKM9-2 or anti-FLAG (Anti-DYKDDDDK tag mAb; 1E6, Wako Pure Chemical Industries, Osaka, Japan). After washing, it was treated with horseradish peroxidase-conjugated goat anti-mouse IgG (Jackson ImmunoResearch, West Grove, PA, USA), and developed with Amersham ECL select (GE Healthcare, Buckinghamshire, UK). Although glycan in non-fat milk often interferes the glycan-dependent binding of an antibody, the SKM9-2 binding was not affected by the blocking using non-fat milk, in comparison with 5% bovine serum albumin (Supplementary Fig. S6).
Cell lysate or SKMepmin3 was treated with α2-3 Neuraminidase S, α2-3, 6, 8, 9 Neuraminidase A, and O-Glycosidase (New England Biolabs Japan, Tokyo, Japan) in 50 mM sodium phosphate (pH 7.5) containing 1% Nonidet P-40, according to the manufacturer’s instructions. The cell lysate sample was resolved by 4–15% or 6% SDS-PAGE under reducing conditions and detected by western blotting using SKM9-2. The analysis of the SKMepmin3 sample was performed by SPR.

SKM9-2 [2] = assay: Western blotting using SKM9-2 of HEG1 truncated mutants and epitope-fused GPI-anchor proteins; format: binding; details: cell lysates of transfected HEK293T, SDS-PAGE under reducing conditions, 1 µg/mL SKM9-2
Excerpt: Figure 1 SKM9-2 binding to truncated mutants of HEG1. Schematics of full-length HEG1 (Full) and the truncated mutants are indicated on the left side and the results of western blotting using SKM9-2 are shown on the right side. Truncated amino acid position, which is based on a full-length variant of HEG1 containing exon 6, is shown as a number in the schematic of domain structure. The region of the SKM9-2 epitope is shown as a red square. […] SLURP GPI-anchor protein[18] was used as a fused GPI-anchor protein (violet square). The terminal sequences of the HEG1 peptide are shown in the western blot lane. The samples were resolved by 6% SDS-PAGE (a and b) or 4–15% SDS-PAGE (c) under reducing conditions and were detected by western blotting using SKM9-2. Cyt, cytoplasmic domain; EGFs, EGF related domains; Ser/Thr, serine/threonine rich region; SLURP, secreted lymphocyte antigen-6/urokinase-type plasminogen activator receptor-related peptide; SP, signal peptide; TM, transmembrane domain. Full-length blots are presented in Supplementary Fig. S7.
Figure 2 Epitope mapping of SKM9-2. Schematic of epitope peptides (left side) and western blots resolved by 4–15% SDS-PAGE (right side) are shown. The HEG1 peptide sequences are indicated in the western blot lane. Each epitope peptide was fused with a signal peptide (dashed line square) and a SLURP GPI-anchor protein (violet square). Full-length blots are presented in Supplementary Fig. S8.
Figure 3 Alanine scanning of SKM9-2 epitope. […] Cell lysates of transfected HEK293T (upper panel) or transfected ACC-MESO1 (lower panel) were resolved by 4–15% SDS-PAGE and analyzed by western blotting using SKM9-2. (b) S897A mutant of FLAG-tagged HEG1 in HEK293T was resolved by 4–15% SDS-PAGE and analyzed by western blotting using SKM9-2 (upper panel) or anti-FLAG mAb (lower panel). Native HEG1 in ACC-MESO4 and FLAG-tagged HEG1 without mutation in HEK293T were used as controls. Full-length blots are presented in Supplementary Fig. S9.
Sequences of tested HEG1 are shown in Supplementary Dataset. Full-length HEG1 cDNA was synthesized from total RNA purified with TRIzol reagent (Thermo Fisher Scientific) from ACC-MESO-4, using an oligo dT primer and SuperScript II RNase H reverse transcriptase (Thermo Fisher Scientific). cDNA encoding the HEG1 open reading frame was amplified by PCR using PrimeSTAR HS DNA Polymerase (Takara Bio Inc., Shiga, Japan). The HEG1 cDNA was cloned and inserted into the pcDNA3.1(−) mammalian expression vector (Thermo Fisher Scientific). For analyses of N-terminal truncation, we inserted mutants into pFLAG-CMV1 (Sigma-Aldrich Japan K.K., Tokyo, Japan). For analyses of C-terminal deletion lacking the transmembrane domain, we used mutants that were fused with a GPI-anchor protein, SLURP1-gpi[18], in pcDNA3.1(+) (Thermo Fisher Scientific) (Supplementary Dataset). Alanine substituted mutants were prepared using site directed mutagenesis. To produce a soluble epitope peptide, a modified HEG1 signal peptide and a C-terminal tag containing the FLAG tag plus a polyhistidine sequence were used in the mammalian expression vector pEF-BOS[39] (Supplementary Dataset). The plasmid constructs were transfected with Lipofectamine 3000 (Thermo Fisher Scientific). The HEG1 peptide-expressing 293 H clone was obtained by selection with geneticin (Thermo Fisher Scientific).
Monolayer cells were solubilized with 20 mM Tris buffer (pH 8.0) containing 1% SDS, 1 mM phenylmethylsulfonyl fluoride, 125 mU/mL Benzonase Nuclease (Merck Millipore Co., Tokyo, Japan) (25 µL/cm^2 culture surface area). The lysate (10 µL/lane) was resolved by SDS-PAGE under reducing conditions using 6% polyacrylamide gels or 4–15% precast gels (Bio-Rad Laboratories Inc., Hercules, CA, USA). […]

B1: Native endogenous HEG1: native HEG1, 400 kDa mucin-like membrane protein, in ACC-MESO4 cells (protein, UniProt Q9ULI3 30-1381, looked up)
Protein HEG homolog 1: TRDPPPSPARRALSLAPLAGAGLELQLERRPEREPPPTPPRERRGPATPGPSYRAPEPGAATQRGPSGRAPRGGSADAAWKHWPESNTEAHVENITFYQNQEDFSTVSSKEGVMVQTSGKSHAASDAPENLTLLAETADARGRSGSSSRTNFTILPVGYSLEIATALTSQSGNLASESLHLPSSSSEFDERIAAFQTKSGTASEMGTERAMGLSEEWTVHSQEATTSAWSPSFLPALEMGELTTPSRKRNSSGPDLSWLHFYRTAASSPLLDLSSSSESTEKLNNSTGLQSSSVSQTKTMHVATVFTDGGPRTLRSLTVSLGPVSKTEGFPKDSRIATTSSSVLLSPSAVESRRNSRVTGNPGDEEFIEPSTENEFGLTSLRWQNDSPTFGEHQLASSSEVQNGSPMSQTETVSRSVAPMRGGEITAHWLLTNSTTSADVTGSSASYPEGVNASVLTQFSDSTVQSGGSHTALGDRSYSESSSTSSSESLNSSAPRGERSIAGISYGQVRGTAIEQRTSSDHTDHTYLSSTFTKGERALLSITDNSSSSDIVESSTSYIKISNSSHSEYSSFFHAQTERSNISSYDGEYAQPSTESPVLHTSNLPSYTPTINMPNTSVVLDTDAEFVSDSSSSSSSSSSSSSSGPPLPLPSVSQSHHLFSSILPSTRASVHLLKSTSDASTPWSSSPSPLPVSLTTSTSAPLSVSQTTLPQSSSTPVLPRARETPVTSFQTSTMTSFMTMLHSSQTADLKSQSTPHQEKVITESKSPSLVSLPTESTKAVTTNSPLPPSLTESSTEQTLPATSTNLAQMSPTFTTTILKTSQPLMTTPGTLSSTASLVTGPIAVQTTAGKQLSLTHPEILVPQISTEGGISTERNRVIVDATTGLIPLTSVPTSAKEMTTKLGVTAEYSPASRSLGTSPSPQTTVVSTAEDLAPKSATFAVQSSTQSPTTVSSSASVNSCAVNPCLHNGECVADNTSRGYHCRCPPSWQGDDCSVDVNECLSNPCPSTAMCNNTQGSFICKCPVGYQLEKGICNLVRTFVTEFKLKRTFLNTTVEKHSDLQEVENEITKTLNMCFSALPSYIRSTVHASRESNAVVISLQTTFSLASNVTLFDLADRMQKCVNSCKSSAEVCQLLGSQRRIFRAGSLCKRKSPECDKDTSICTDLDGVALCQCKSGYFQFNKMDHSCRACEDGYRLENETCMSCPFGLGGLNCGNPYQLITVVIAAAGGGLLLILGIALIVTCCRKNKNDISKLIFKSGDFQMSPYAEYPKNPRSQEWGREAIEMHENGSTKNLLQMTDVYYSPTSVRNPELERNGLYPAYTGLPGSRHSCIFPGQYNPSFISDESRRRDYF
SKM9-2 [1]; Neuraminidase A
  SKM9-2 binding (western blot): lost
SKM9-2 [1]; α2–3 Neuraminidase S
  SKM9-2 binding (western blot): weakened

B2: 1 kb: FLAG-tagged N-terminal deletion mutant hHEG1 (1086-1481) (protein)
chain: MSALLILALVGAAVADYKDDDDKLAAANSSIDLVNSCAVNPCLHNGECVADNTSRGYHCRCPPSWQGDDCSVDVNECLSNPCPSTAMCNNTQGSFICKCPVGYQLEKGICNLVRTFVTEFKLKRTFLNTTVEKHSDLQEVENEITKTLNMCFSALPSYIRSTVHASRESNAVVISLQTTFSLASNVTLFDLADRMQKCVNSCKSSAEVCQLLGSQRRIFRAGSLCKRKSPECDKDTSICTDLDGVALCQCKSGYFQFNKMDHSCRACEDGYRLENETCMSCPFGLGGLNCGNPYQLITVVIAAAGGGLLLILGIALIVTCCRKNKNDISKLIFKSGDFQMSPYAEYPKNPRSQEWGREAIEMHENGSTKNLLQMTDVYYSPTSVRNPELERNGLYPAYTGLPGSRHSCIFPGQYNPSFISDESRRRDYF
SKM9-2 [2]
  recognition by SKM9-2 upon western blot analysis: not detected

Reference: PMC6155162, “Identification of mesothelioma-specific sialylated epitope recognized with monoclonal antibody SKM9-2 in a mucin-like membrane protein HEG1” (Scientific Reports, 2018)
